The record followed here is patent publication US20110243954A1 (published 2011).

One assay has as its target T1, von Willebrand factor (human, UniProt P04275 764-2813).
T1 construct: also called vWF; VWF
As to the kind of experiment: inhibition ELISA of ristocetin-induced binding of vWF to platelets. The protocol: After 3 times washing with phosphate buffered saline (PBS), wells were incubated for 1 hour at room temperature (RT) with formalin fixed human platelets (Dade Behring, Newark, Del.) which were diluted two-fold in PBS or—as a blank—with PBS. Wells were washed 3 times with PBS and blocked for 2 hours at RT with PBS containing 4% bovine serum albumin (BSA, Sigma). A dilution series of compound was prepared in human plasma and was preincubated for 30 min at RT with 1.5 mg/mL ristocetin (abp, NJ, USA) after which the mixture was transferred to the coated wells. […] For the analysis of the data, the absorbance values were corrected using the absorbance of the respective blanks.

Assay [1] addresses T2, human serum albumin (human, UniProt P02768 25-609).
T2 construct: HSA used in ELISA and SPR was bought (Sigma); also called HSA
As to the kind of experiment: phage competition ELISA: signal of well with 2 µM HSA competitor / signal of well with no competitor. The protocol: (§1) A competition ELISA was performed to determine the relative binding affinity for the selected phage clones. 96-well Nunc Maxisorp plates were coated with 2 μg/ml HSA in coating buffer at 4° C. Plates were blocked with SuperblockT20 (Pierce) for 1 h at room temperature. The microtiter plates were washed with wash buffer (PBS, 0.05% Tween 20).
After respectively three and four selection rounds, monoclonal phage were screened for binding on HSA, in the manner described in Example 2. […] The ratio of phage binding was calculated by the following equation: fluorescence signal of well with 2 μM competitor/fluorescence signal of well with no competitor (Table VI).

Assay [2] has as its target T2, human serum albumin. Put plainly: solution binding competition ELISA: phage pre-incubated with 1 µM HSA, unbound phage captured on coated HSA; signal with competitor / without. Here is the method:
as §1
Unbound phage was captured by transferring 100 μl of the well mixture to the HSA coated Maxisorp plate and incubating at room temperature for 30 minutes. The plate with captured phage was washed with PBS-0.05% Tween 20 five times. Bound phages were detected with anti-M13 and goat-anti mouse IRDye conjugate. The amount of IRDye bound was measured on Odyssey (LI-COR Biosciences). The ratio of phage binding was calculated by the following equation: fluorescence signal of well with competitor/fluorescence signal of well with no competitor (Table III).

B1: 12A2 sv1-AAA-12A2 sv1-9GS-59C2-9GS-59C2 (vWF-0056) (VHH)
chain: DVQLVESGGGLVQPGGSLRLSCAASGRTFSYNPMGWFRQAPGKGRELVAAISRTGGSTYYPESVEGRFTISRDNAKRTVYLQMNSLRAEDTAVYYCAAAGVRAEQGRVRTLPSEYTFWGQGTQVTVSSAAAEVQLVESGGGLVQPGGSLRLSCAASGRTFSYNPMGWFRQAPGKGRELVAAISRTGGSTYYPESVEGRFTISRDNAKRTVYLQMNSLRAEDTAVYYCAAAGVRAEQGRVRTLPSEYTFWGQGTQVTVSSGGGGSGGGSRDWDFDVFGGGTPVGGGGGGSGGGSRDWDFDVFGGGTPVGG
notes: bivalent anti-vWF Nanobody with a C-terminal tandem repeat of 59C2
On to B1, for which the binding result with von Willebrand factor is given as “binds”.

B2: 12A2 sv1-AAA-12A2 sv1-9GS-59C2 (vWF-0055) (VHH)
chain: DVQLVESGGGLVQPGGSLRLSCAASGRTFSYNPMGWFRQAPGKGRELVAAISRTGGSTYYPESVEGRFTISRDNAKRTVYLQMNSLRAEDTAVYYCAAAGVRAEQGRVRTLPSEYTFWGQGTQVTVSSAAAEVQLVESGGGLVQPGGSLRLSCAASGRTFSYNPMGWFRQAPGKGRELVAAISRTGGSTYYPESVEGRFTISRDNAKRTVYLQMNSLRAEDTAVYYCAAAGVRAEQGRVRTLPSEYTFWGQGTQVTVSSGGGGSGGGSRDWDFDVFGGGTPVGG
notes: bivalent anti-vWF Nanobody with one C-terminal 59C2 peptide
B2: the binding result with von Willebrand factor is listed as “binds”.

B3: 59C2 (peptide)
peptide: AARDWDFDVFGGGTPVGG
notes: also called EXP59C2
As to B3, the “Ratio 2 µM/0 µM HSA” value in the assay with human serum albumin [1] came to 0.91 ratio.

B4: 59F2 (peptide)
peptide: AARYWDFDVFGGGTPVGG
As for B4, the “Ratio 2 µM/0 µM HSA” value in the assay with human serum albumin [1] turned out to be 0.69 ratio.

B5: 59H12 (peptide)
peptide: AARSWDFDVFGGGTPVGG
With B5, the “Ratio 2 µM/0 µM HSA” value with human serum albumin [1] was 0.87 ratio.

B6: PMP56A3 (peptide)
peptide: AALYDDYDVFGGGTPVGG
notes: also called 01C7; PMP26A3 (in the text)
As to B6, the “Ratio 1 µM/0 µM HSA” value in the assay with human serum albumin [2] stood at 0.47 ratio.

B7: 01B3 (peptide)
peptide: AALYDDYDVFGGGTPAGG
For the molecule B7, in the assay with human serum albumin [2], the “Ratio 1 µM/0 µM HSA” value was found to be 0.42 ratio.

B8: PMP56H5 (peptide)
peptide: AAFYDDYDVFGGGTPAGG
notes: also called 01G7; PMP54H5 (in the text)
As to B8, the “Ratio 1 µM/0 µM HSA” value with human serum albumin [2] is 0.43 ratio.

B9: PMP56E4 (peptide)
peptide: AARYWDYDVFGGGTPVGG
notes: also called EXP56E4
Consider B9, for which the “Ratio 2 µM/0 µM HSA” value with human serum albumin [1] was determined as 0.82 ratio.
